Measurements as given in PMC4643982.

Target: T1, EutR::MBP (Salmonella enterica serovar Typhimurium SL1344) (UniProt Q9ZFU7)
T1 sequence: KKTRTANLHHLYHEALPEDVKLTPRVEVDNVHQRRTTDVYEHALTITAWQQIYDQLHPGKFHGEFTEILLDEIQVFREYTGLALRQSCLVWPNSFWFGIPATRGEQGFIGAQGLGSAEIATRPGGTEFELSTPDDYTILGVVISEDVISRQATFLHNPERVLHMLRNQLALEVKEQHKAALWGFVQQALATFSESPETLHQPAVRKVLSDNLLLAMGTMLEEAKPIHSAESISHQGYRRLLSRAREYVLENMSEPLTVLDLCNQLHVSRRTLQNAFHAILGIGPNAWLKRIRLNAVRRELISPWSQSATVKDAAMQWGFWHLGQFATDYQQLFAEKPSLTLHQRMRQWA
Experiment: competition
Conditions: 60 mM HEPES pH 7.5, 300 mM KCl, 25 mM MgCl2, 5 mM EDTA, 3 mM DTT, 500 ug/ml BSA, 50 ng poly-dIdC, 1 mM ethanolamine, 150 nM vitamin B12; 25 min at 25 C; 6% …

CCGGAATTGCCAGCTGGGGCGCCCTCTGGTAAGGTTGGGAAGCCCTGCAAAGTAAACTGGATGGCTTTCTTGCCGCCAAGGATCTGATGGCGCAGGGGATCAAGATCTGATCAAGAGACAGGATGAGGATCGTTTCGCATGATTGAACAAGA (double strand) [kan promoter probe]
binding: no binding
